Source: paper PMC6105893

Molecular target: T1, LeuO (rLeuO) (Vibrio vulnificus MO6-24/O?) (UniProt A0A087INQ4)
T1 sequence: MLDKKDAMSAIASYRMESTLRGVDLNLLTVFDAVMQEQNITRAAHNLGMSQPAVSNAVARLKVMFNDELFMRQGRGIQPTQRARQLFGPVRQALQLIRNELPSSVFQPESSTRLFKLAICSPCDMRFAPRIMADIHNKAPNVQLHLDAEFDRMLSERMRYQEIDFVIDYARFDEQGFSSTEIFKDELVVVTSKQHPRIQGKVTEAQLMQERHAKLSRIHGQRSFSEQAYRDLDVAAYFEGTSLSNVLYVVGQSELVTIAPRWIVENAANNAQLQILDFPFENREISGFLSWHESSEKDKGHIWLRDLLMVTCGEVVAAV
Assay: EMSA
Details: 10 mM Tris-HCl pH 7.4, 10 mM KCl, 1 mM EDTA, 0.1 mM DTT, 50 ug/ml BSA, 5% glycerol, 1 ug poly(dI-dC), 10 ng probe in 20 ul, 30 min at 37 C; 6% neutral …

GAGTTTGACGCTAAAAAATAGTGATGTGCAGCAAAAATAAGTAAAAGTTTACGCTGATAGGCTCGAAAAGGCTTGTCAGCGTTTTTTTTGGGAGCTAAGTTAGAGCTCGATGGCTGCCAGCCCTTTTAAGATAAGGCTTGGCGCTAATTTTTAGTATTAATGGAACGAAAGTCATCTAAAAAAATAATCACAGATGGCACAAAGGGGAATCACAGTGAACAAAACTCAACTAGTAGAATCAATCGCTGCAAACGCAGAT (double strand) [vhuB upstream region]
binding: binds
